Columns and labels:
Assay in all cases: IEDB peptide-MHC binding, purified MHC/competitive/radioactivity; ≥ and ≤ were set here for values at or beyond the usual limits of such assays
Details in all cases: source organism: Homo sapiens
[1] = target: HLA-A*33:01
[2] = target: HLA-A*11:01
[3] = target: HLA-A*68:01
[4] = target: HLA-A*31:01
[5] = target: HLA-A*03:01
[6] = target: HLA-A*30:01

Row | IC50 [1] [nM] | IC50 [2] [nM] | IC50 [3] [nM] | IC50 [4] [nM] | IC50 [5] [nM] | IC50 [6] [nM] | Sequence
1 | 60 | 63 | 10 | ≥ 70000 | 1070 | ≥ 70000 | EVYEGVWKK
2 | 63600 | 2280 | 4200 | 9870 | 2280 | 10100 | KLGGGQYGE

— the Immune Epitope Database (IEDB)
